Experimental data taken from a protein production outcome set (Wang et al. 2014).

Assay: label from the status in PepcDB records

Sequence	protein production
MQGIKRKLVYVTAYELIGMSISTLGLALLAGSTPTTTGPLAVVITTVAVTWNFIYNCLFEFWERRQAVRGRSIARRVAHAIGFQLTLVVYLIPLIAWWMGISLLEAFWLDLALIVLIPCYTFLFNWAFDRLFGLPTSALPAGEAASV	failed
MQGLVNMVYQQTERLGYKNLEMIKGLDRTENYSKLKKYYRSCVKEYELSNKAIEEAKGFASSKAYRSASEAAARAFDSISMCEAYLEGSKTPGYVTTRNWWFERMCDIDKIFTDLLISAKF	failed
MQGNALTILLSGKKYLLLQGPMGPFFNDVAEWLESLGRNAVNVVFNGGDRFYCRHRQYLAYYQTPKEFPGWLRALHRQYDFDTILCFGDCRPLHKEAKRWAKSKGIRFLAFEEGYLRPQFITVEEGGVNAYSSLPRDPDFYRKLPDMPAPHVENLKPSTMKRIGHAMWYYLMGWHYRHEFPRYRHHKSFSPWYEARCWVRAYWRKQLYKVTQRKVLPRLMNELDQRYYLAVLQVYNDSQIRNHSNYNDVRDYINEVMYSFSRKAPKESYLVIKHHPMDRGHRLYRPLIKRLSKEYGLDERVIYVHDLPMPELLRHAKAVVTINSTAGISALIHNKPLKVMGNALYDIKGLTYQGHLHQFWQADFKPDMKLFKKFRGYLLVKTQVNGGYYGGVKFENALGMNKDFLFGSKSIS	failed
MQHHKVAIIGAGAAGIGMAITLKDFGITDVIILEKGTVGHSFKHWPKSTRTITPSFTSNGFGMPDMNAISMDTSPAFTFNEEHISGETYAEYLQVVANHYELNIFENTVVTNISADDAYYTIATTTETYHADYIFVATGDYNFPKKPFKYGIHYSEIEDFDNFNKGQYVVIGGNESGFDAAYQLAKNGSDIALYTSTTGLNDPDADPSVRLSPYTRQRLGNVIKQGARIEMNVHYTVKDIDFNNGQYHISFDSGQSVHTPHEPILATGFDATKNPIVQQLFVTTNQDIKLTTHDESTRYPNIFMIGATVENDNAKLCYIYKFRARFAVLAHLLTQREGLPAKQEVIENYQKNQMYLDDYSCCEVSCTC	not failed
MQIESFKSLLPKYKCIFFDAFGVLKTYNGLLPGIENTFDYLKAQGQDYYIVTNDASRSPEQLADSYHKLGLFSITADKIISSGMITKEYIDLKVDGGIVAYLGTANSANYLVSDGIKMLPVSAIDDSNIGEVNALVLLDDEGFNWFHDLNKTVNLLRKRTIPAIVANTDNTYPLTKTDVAIAIGGVATMIESILGRRFIRFGKPDSQMFMFAYDMLRQKMEISKREILMVGDTLHTDILGGNKFGLDTALVLTGNTRIDDAETKIKSTGIVPTHICESAVIEL	not failed
MQIKEIFMIRCISCLSVVLLHIISMVLMLQAEALADISHTVDSFRTLLMFSTPAFIFISEFLLARSYPDGVPDGFLKKRGKVIFVPFLFIAAIDALLMTSAMGGEVTFLAFVQKYLANVFLGNFIGYFILVIFQFYMLHMMFHEYLKKASPKWVLSISFVVTAAYLGYFSAASPAPASEEGGAFPFFWVPFAGWLFYFCLAYYCGKEYKRFLALLNQYRWVVYGAAIASGALVVTVSYVGEIGMISSKRPDIMLYSTSMIFLCFHLFSKMKHVPKIMMFISNYSFSIYLLHAYFMIIGYVLLLNMPEIPAVPAVLLLFAVCTAGPIMTSWALNKFKYGYLFVGKIYQPKQKKVTVEVRDHAG	failed
MQILQTFVQSIQGVMTIIVMIAVGYLLARWGWFNESATKLIARLVTQIALPAYMIATITKQFTAHKLLSTLPGLRFPVLNMAILFGISFGVMRALNIKKSHRGLFASMFLNSNTVFIGLPVNQALFGNSALPYVLVYYMANTTIFWTLGVYLIQRDGTGTAKFDLKQTLTKIFSPPLLGFMIGVLLVLGNIHVPKFLMDDFSYIGGLTIPLSMIFIGISMANAGLSSMRFDRDSLGILLGRFILAPVLMTLMLIPMSIPLEMKQVFILQSAMPVMTNAPVVSKLYGADADYAAVMVTETTLLSLIVIPILMVIVQANFIR	failed
MQIPIYSKLKTKLESKGIDNISSGQIAWFVCSLILALVTYIILTFHYIYISYGKYDKNLFLLIFDRNAIELFVIVYSCIMFNLLYIYNAIPLVLSAVFIFLAFYFSSLSLFIVGCCGIGVFFLISIFKRKFMFSVLLFALGYTCTLFFFYGLATY	failed
MQIYLSTLTELDYDKSLNSIEESFDDNPETSWQARAKVKHLRKSPCYNFELEVIAKNENNDVVGHVLLIEVEINSDDKTYYGLAIASLSVHPELRGQKLGRGLVQAVEERAKAQEYSTVVVDHCFDYFEKLGYQNAAEHDIKLESGDAPLLVKYLWDNLTDAPHGIVKFPEHFY	failed
MQKFIIHKGIACPLEYANIDTDQIIPKQFLLAVSKQGFGKHLFHDLRYLDDKESVLNMDFNLNKKEYQNSSILVSFENFGSGSSREHAPWALVDYGIRAIIAPSFADIFKNNALGNGLLTIELAKDEVLEIVDELKKSQDKNIEISLLEKRVFFKDKIFSFDLDDFHRICLLEGLDNIALTLKHEAQIKAYEKNSKSFLV	not failed
MQKGFLLGLFAYATFSMGDATIKSLGSQISVFEIGFFSILFSGIFIFFSKPREERWREFWRMSRPFAVHGRAISGLFAGIFGIYAFTTIPLAEAYALIFLSPLFVTVLSAVVLKENIGPWRWAAVLAGIVGVILVVRPGFKTLELGHIAAIGVAFLAAMTIVLLRSLAGKEKRTSIMGVLLIYGLTFNGIASIPDFVMPNLHQLLAFAFIGLCTATGQITLLVATRIAPASQIAPSHYSQILWAVAIGMTFFHEYPDAIAALGLAVIAASGLLTMIREKVRLGTVRWNPFFRNRL	failed
MQKKSQTAQSYHPMIKEFPEFYGPLTCPGQFLALLILEFGLNFAEIQKLKWENFNWNFKYLTIEKAGIKRVLPIREKFAIRVKAINNADELFAKSRQFLYTELKKFTNYSSKEIREQYILHQVKAGKSIYELATLLGLTTITTLEKYYRLEHHHHHH	failed
MQKLFLTFFYSGSVKKASGTFGTIAALIPAFFILKYLGINTLFLLSILIFVASIRVIDDYEKKTGIHDDKHIVIDEVAGVFLACAIAASVENSIVNFILAFVLFRLFDITKPSIIGKIDKKVKGGLGVMLDDMLAGLFAGLLSAVIYGFLLKFNLVFWDINLKDLF	failed
MQKRVVILLLDSFGIGASEDAKDFGDLGANTLGNIAKACFNNLADSNDRSGALKLPYLESLGLGLSALKAANELPLGFQSQPNLIGAYAYAQELSSAKDTISGHWEMMG	failed
MQKSDALALDGSAALAEPVPATEIARGIAVLAAPTSLVAFLQAGAQLIETWLAARQGTASLAGWAVVLPFALLLQQMSTGAMGGGVVSAIARALGGGKREEASSLVLHALIIAVTAGLIFAIVLAGFPRSVFGAVAGATAAEAAASYAIWLFGAGAVPAWLANTLASVLRGGGRHALAARVLGGMWVVFPVLSWWLAERVGMGLAGIGAALAAVSWGAALVMAYVVFRGGAGFVPSLRIRPSKALFYRILSIGLVACALASVANLTTILVTAQLRHYGTTTVAAYGISARLEFLMIPLAFGVGSALTALVGRAVGAGDWHTARRTAWVGALLALLIAGTVGAAVGLAPNQFAGLFTQDPNVGAIAARALSWVGPAFGGFGLGMALYFASMGAGRMRWPIAAGLCRIALAAGGGWLLANVAGMGLDGHFLGVALGITSYGLVTAIGVRKGEWSPRH	failed
MQLSAPPYEERLTAPRTWWLMCFLVGVSMALILLPFGTLPLLGGLVGGTAVAAVVASSYGSIRIRVVGDSLIAGEAKIPVAALGEAEIMDQEEARAWRTYKANPRAFMLLRSYIPTALRVEVTDPQDPTPYLYLSTREPERLAAALKAARTEA	failed
MQLSIEEVKKLDSNSYQIIDIRSEEEVAHGAIKGALNIQAEEIESDERVPHDKKLVIVCSRGKTSVDVAEYLTEKGFDAASLKGGYISWLLDAMKEDEVAERDIKADVEQSIRKKFKKSIWRKFTKAINTYELVKPGDKIAVCISGGKDSMLMAKLFQELKHHNKFDFDVKFLVMDPGYNEANRHVIEENCRNLGIPATIFESDIFDAVYDIEKSPCYLCARMRRGHLYAFAKELGCNKIALGHHYDDVIETILMGMLYGAQVQTMMPKLHSTNFEGMELIRPLYLVREDDIKAWRDYNGLHFIQCACKFTDTCTTCNNEENRSKRVEIKQLIANLKKVNPFVEANIFKSVENVNLATVVAYKKDGIKHSFLDHYDE	failed
MQMAGFGLIAKLRNKIRVKPNNKIQIGKNTRIRYCDIYVNGNNNQLIIHNGANLKGVSIELNGNNCLLEIGENCVIGENCFLSCRESGTKLVIGKECMFSRNVKLMTSDGHDILRDGKRINPAKSIYIGSHVWLADNVTILKGVDIGSGSIIGINSTVTKSIGQYCIAAGNPARKIKDNISWNTTLSY	failed
MQMMEQFYPKVSIVIPVYNGSDYMREAIDSALGQTYGNIEVIVVNDGSSDGGLTHEIALSYGGNIRYFAKENGGVASALNFAIRMMDGEYFSWLSHDDIYYPNKIETQIGYLAEHDRNAILYSDFELIDCLSKVIKPVNAGEIPPEQFLYNLITIGHLNGCTLLVPKRCFEETGFFDESLRSTQDYALWFTFAQKYRFEQIRKVLVKYRTHSNQGSYVIPTHSQEVNDLHIWFLEEASERGLLPIPDEGASRFFLEVAGIYKKRGIYRAADYSCSMALRHMRDEGGLALLRELPRVAYLKYYFRKKQFKSYLRELRRSTVRRSLLEHHHHHH	not failed
MQNELQKYDDTINIAFFGLDRRQKTDISRSDSIMILTMDPTHKKLKLSSIMRDTYVNVDGHGMTKITHAYAYGGPQLAIKTINENFNLNIKDYVTVDFYGLEKIIDKLNGVEVDVQPDEVNYLNSYIDEVSKYEKVTPNHVSSAGKQLLDGRQAVAYSRIRYTAGGDFQRTERQRTVLMAVFNKMKAQGKSNMLSMMDELLPYAETDLGSLDIAKYGAKFLSSNIDSIDQERFPVDGYCSGITVDNVWYLKTDLGVTSDQMKKYIFEDVKPTPKASLVNIPAKLEHHHHHH	not failed
MQNTIIQKAVNKDLNSILEITKDALNAMKTMNFHQWDENYPNEIVFQEDIQAQELYVFKENDEILGFICINEKFKPEFYKQVIFNKNYDDKAFYLHRLAVKQNAKGKGVAQKLLNFCENFALENHKASLRADTHSKNFPMNSLFKKLDFNFCGNFDIPNYQ	failed
MQNTIIQKAVNKDLNSILEITKDALNAMKTMNFHQWDENYPNEIVFQEDIQAQELYVFKENDEILGFICINEKFKPEFYKQVIFNKNYDDKAFYLHRLAVKQNAKGKGVAQKLLNFCENFALENHKASLRADTHSKNFPMNSLFKKLDFNFCGNFDIPNYQDPFLAYEKILNQKAF	not failed
MQNTKLYSLTLIALGAAIIAVLSPLSIPIGIVPVTLQTLAVGLVATVLKARETFFAILLYLLLGFIGIPVFTGGTSGIAVLFGPTGGFLIAFLIMGTLISFGLHQINYKTIPAFIINIVGHLLMLVIGTLWLKFFTNVDWSLALKLGFTPFVIVEIIKAVLVTIFGLALIRALSHTNKYFTN	failed
MQPQNIFDNEVFFQGYKKLRENPNSANILEEKPAIFSLLPELTGKKVLDLGCGYGENCNMFSKMGANKVVGIDVSSKMLAIANNDNSGDNIFYENMCMEDIFCINEKFDVVVSSLAVHYINDFNKLVCNVNSLLKDNGIFVFSQEHPLTTAPKNGARWFKNVDGRIAHYVLTDYATSGERTVSWIVDGITKYHRTFSDIVNALIDAGFIIEKMLEPVPTKEIIERDPSSAKDLHKPNFLVTRARKK	failed
MQPTTRLSFSQRHPFIFGFLLIMVAVALFTGATATFRHLTDAGSFGGPRIGIVRIEGMIGDVRKTLEWMRKLAEDRTVRGVLVRVDSPGGAVAPSQELHDAVKRLAADKPVVVSMGSLAASGGLMVSTGATRIVANPATITGSIGVKMEMPNVQGLMDKIGVARQTLVSGDLKDAGSPFRAMSEAERAYFQSIIMEMYGQFVSMIAEDRNIPVEKVRSFADGRILTGSQALELGLVDKLGSEAAAMDVLLALVDLKGEKPVFIEPPKERSWVREVLESALGIAPPQNMGQPAFLYY	failed
